Publication PMC4807051, “Determinants of Cofactor Specificity for the Glucose-6-Phosphate Dehydrogenase from Escherichia coli: Simulation, Kinetics and Evolutionary Studies” (PLoS ONE, 2016)

How the values were obtained:
[1] = test system: T1, NC(=O)c1ccc[n+]([C@@H]2O[C@H](COP(=O)(O)OP(=O)(O)OC[C@H]3O[C@@H](n4cnc5c(N)ncnc54)[C@H](O)[C@@H]3O)[C@@H](O)[C@H]2O)c1; test: purified protein; assay type: biochemical, Escherichia coli; settings: 25°C, apparent
T1 construct: full length; N-terminal 6xHis tag cut by TEV protease (Gly-His left before Met1); plasmid pET-TEV-EcG6PDH from pETG6PDH

[2] = test system: T2, NC(=O)c1ccc[n+]([C@@H]2O[C@H](COP(=O)(O)OP(=O)(O)OC[C@H]3O[C@@H](n4cnc5c(N)ncnc54)[C@H](OP(=O)(O)O)[C@@H]3O)[C@@H](O)[C@H]2O)c1; test: purified protein; assay type: biochemical, Escherichia coli; settings: 25°C, apparent
T2 construct: full length; N-terminal 6xHis tag cut by TEV protease (Gly-His left before Met1); plasmid pET-TEV-EcG6PDH from pETG6PDH

“EcG6PDH; glucose-6-phosphate dehydrogenase from Escherichia coli (Escherichia coli K-12)” was tested, and the Km ([1]; near-saturating G6P) was 5.09 ± 0.4 mM, the kcat ([1]; near-saturating G6P) was 288 ± 5 s⁻¹ and the kcat/Km ([1]; near-saturating G6P) was 60000 ± 4000 M⁻¹ s⁻¹. For the same substance, the Km ([2]; near-saturating G6P) was 0.0075 ± 0.0008 mM, the kcat ([2]; near-saturating G6P) was 174 ± 2 s⁻¹ and the kcat/Km ([2]; near-saturating G6P) was 2.32e+07 ± 2.4e+06 M⁻¹ s⁻¹.
“EcG6PDH; glucose-6-phosphate dehydrogenase from Escherichia coli (Escherichia coli K-12; K18A)” was tested, and the Km ([1]; near-saturating G6P (40 mM)) was 2.477 ± 0.26 mM, the kcat ([1]; near-saturating G6P (40 mM)) was 109 ± 2 s⁻¹ and the kcat/Km ([1]; near-saturating G6P (40 mM)) was 40000 ± 4000 M⁻¹ s⁻¹. For the same substance, the Km ([2]; near-saturating G6P (40 mM)) was 0.099 ± 0.003 mM, the kcat ([2]; near-saturating G6P (40 mM)) was 143 ± 1 s⁻¹ and the kcat/Km ([2]; near-saturating G6P (40 mM)) was 1.4e+06 ± 40000 M⁻¹ s⁻¹.
Substance “EcG6PDH; glucose-6-phosphate dehydrogenase from Escherichia coli (Escherichia coli K-12; K18A/R50A)” has a Km ([1]; near-saturating G6P (40 mM)) of 11.736 ± 0.804 mM, a kcat ([1]; near-saturating G6P (40 mM)) of 165 ± 4 s⁻¹ and a kcat/Km ([1]; near-saturating G6P (40 mM)) of 10000 ± 700 M⁻¹ s⁻¹. For the same substance, the Km ([2]; near-saturating G6P (40 mM)) was 17.696 ± 1.453 mM, the kcat ([2]; near-saturating G6P (40 mM)) was 185 ± 7 s⁻¹ and the kcat/Km ([2]; near-saturating G6P (40 mM)) was 10000 ± 900 M⁻¹ s⁻¹.
Work on “EcG6PDH; glucose-6-phosphate dehydrogenase from Escherichia coli (Escherichia coli K-12; K18T)” yielded a Km ([1]; near-saturating G6P (15 mM)) of 8.352 ± 0.307 mM, a kcat ([1]; near-saturating G6P (15 mM)) of 298 ± 4 s⁻¹ and a kcat/Km ([1]; near-saturating G6P (15 mM)) of 30000 ± 1000 M⁻¹ s⁻¹. It also gave a Km ([2]; near-saturating G6P (15 mM)) of 0.243 ± 0.0053 mM, a kcat ([2]; near-saturating G6P (15 mM)) of 282 ± 1 s⁻¹ and a kcat/Km ([2]; near-saturating G6P (15 mM)) of 1.1e+06 ± 30000 M⁻¹ s⁻¹.
Work on “EcG6PDH; glucose-6-phosphate dehydrogenase from Escherichia coli (Escherichia coli K-12; R50A)” yielded a Km ([1]; near-saturating G6P (50 mM)) of 14.662 ± 2.176 mM, a kcat ([1]; near-saturating G6P (50 mM)) of 171 ± 10 s⁻¹ and a kcat/Km ([1]; near-saturating G6P (50 mM)) of 10000 ± 1000 M⁻¹ s⁻¹. The Km ([2]; near-saturating G6P (50 mM)) was 0.382 ± 0.048 mM, the kcat ([2]; near-saturating G6P (50 mM)) was 189 ± 5 s⁻¹ and the kcat/Km ([2]; near-saturating G6P (50 mM)) was 500000 ± 60000 M⁻¹ s⁻¹.
